Experimental data taken from the NTF2 design screens of Basanta et al. (2020).

assay: protease stability score; higher = more stable; yeast display proteolysis, trypsin and chymotrypsin;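 also: log10 excess protease needed over predicted unfolded state with 0 meaning unfolded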

Sequence	protease stability score
DEREEEKMAEDLLNAVERNNPDHAQKMVDENARVVIGDKDVHGRERMREAIKRQKEQFDRFRWTDVKVDNGRVRAQAVYERNGRTHHVDLNAVIHNGRAKSVRIEEK	0.022
DEREHAEDYARQLDKAFRTGNPDEVMKQVDKDAHFQVGERRFHGEDEFKKWAEEVFERADHIHFRVREVTRQGDKIDVDMQVDMTTNGKRETDKVRALIDTQNGRQRVDEMTFK	0.651
DEREKEHVEEFLRNWEEGNQDNLMRLADPNVRLQIGDHEIHGREQLAKHVDDERKQMRVSMQIKSVDAHNGRIHIQAERESQHDGNPTKESLVITFVLRNGRIQEVSYKRQQ	0.959
DERELDNASRVATNIATGDEEKVVKLADENAKLNVGDNEVHGTEQATREVKKTQNDLRRNVESFEIDKNGNHARLEATVYQTVNGKPVRYKMSAEVHVHNGRVTKVDVQMDHRLLQRNKK	-0.037
DERELSLFHRWLEVLNDGNEENLKQNMDPNAHANIGEKEIHGMEDFARHMITKVKELRIKIDDIKSSAHNGRLTASIDQQDNDNGKPDKYTNTFRAKFSNGQIQSQKVERDG	-0.31
DEREMKQFIELMKQKQTGNEHHVREMFDPNAQIKVGDKTVHGKDNIREQAHRERKEMREDFRIESLDHDGERVVIKYEVQQNHNGRPKTYDVEAEAEVHNGHFKFVSVDNTE	-0.399
DERENKKHAEQLARVFQTGDHDQLRKMMPPDAKAQVGDKEYQGRDSVLHDIKRFLRQADSITIQSVTVQGNTLNIHIQLDINGKDFQAVIEVEMHNGKVVRIVIKES	-0.044
DERENQENVEEMNRVLQSGDEDRMKELVDPNATAVVGEKRVHGRETIKDEIRRFKDHADHITVERVTAKGNSAIIDIVYNVNGRETTIIVIANVHNGKIRHLHFQKS	0.301
DEREQIKKVLKRLEDIFKSGDEDKARELIDPNARMEYGDKELHGREKMARFIHELRKRIDHMEISLQDFKVKGDKLVFRAHLEAEVNGRKTSMTLRVVAHVEGDKIKIKEIQIK	1.65
DERERERQLRDIFRVIQRGDQDRWKEQADENARIHVGDTRVHGQEEARKWFKELVDRADHFSVKRIEVNGDDMILTFEVEFNGKRHTVTIDFNVQNGRIQNINVDPEAERRIRK	0.048
DERFRRLVHSFIQALHTNNPEEIKELFDPNARMTIGDKQVHGQEDISRLIDRERKEMRLEIKTFSVEDKGDTADVKMKAVWDVNGKPNRHSYDLNFVDHNGKIRSLHARMDSQYLREVKS	-0.074
DERHAHTVVKKIIDALHTGDEDTLRHLADKDVRLQVGEKEVHGREEFAKEMSKFHKRVDHMEIKDVTNTGDHASVKYSAKFDGKTFNARADLVVHNGKLKKMHIDPERQKQMDS	0.535
DERHEAEKFAQHWMEVWKKGNHTEISKLIDENARVEVGDQKYHGRSQVKTRARQEVERADHVDYTIRSVKVTGNRIDINAQQVFRVNGTEDDQTRKIVLRRQGDKVVVQSIQAG	-0.159
DERHIHELVKNMQTNNFEEIKKQLDENVRVVVGDTVYHGREQASKALEDMKRMADRIRYTRVDFKGNKVRIDVVMNINGHNLKMVITVVVQNGRIKELVFTARNDEVKTRLDHAIR	1.13
DERHNKQWNKELIKIWTDGDHKKFSEMLDKDVQIQVGDKEYHGREEIVRQYKTLMDRADHFEVKRYEVKGNDITIIFTFQVNGRRDQVRVVFVIENGHVKKITMDKK	1.42
DERIKDTVDQMWSAVKNNDPDQMNENFDPNARIEVGDKEVHGRDTLKKWQDTQNKRSNKDMESVSVKVDGDKVDIEAESKFTNNGQPHTNKMTASARLENGRFKEVHIDSRK	-0.513
DERIRKEHTKRLKAEQTGDPKSAHDMADENVRVKVGDKDLTGMDNIVKTIHEEKKDQRNQLDVHSIELHGEKVKIEMQVVIEHNGRPHKTEQYLVFRADNGKLKRMEQHDSG	0.023
DERKAEHWLDQLAQMLRTGDESHVARLMDENVNVVIGDQRFHGSDEARKAIRQLKERIDHLEVKDMKNEGNKMVVKAVADVNGRTHHLDVQMEFKNGRITRASFDPTAIKQAEG	1.14
DERKAEQNARDLAQALITGDPKRVMDLADENAEVQYGDKTYSGRERLDEVVRSFRRAVDHVDVDDIKEKGDHLRIKMTIQHNGQTRQVTLDIRVKNGKAEQIKFDFTDKDWYRRAIK	0.344
DERKAVKHLNTMMRLINTGNPSEAADQADKDVKVHIGDKDVHGRERASDLIKKLRDRVDTIKVKSIEERPNHLSAKIDLEHNGRTHTVVFIIHAENGKVTSMSVKTD	-0.349
DERKEAKEFADRIVKIIQTNNQDELEKNADPDVRVDVGDKQVHGREQLQDELKKLRTRADHVEVKIQDFKVHNGSVTVQMTIVYVVNGQKHKDERVYHAEIHNGRVKLKSARQK	0.767
DERKEAKKWLDRLNKALHTGDSDKLKDMVDKDVRFNIGDKEIHGREQYVKHVQTRAEQIDDVQIHIHSIHVSGDEIVLTYHVVYNVNGRQESDVFNLVMVKNNGRLVVRSVTKG	-0.012
DERKEMQKHFDRFVTALRENNPDQLREMADPDAKVRIGDKTLHGRDEVVHYLQLLAERADHISFDVKQFDVHNGVAHVDLRMRFTVNGQERHKDMIFVLNEVNGTVVIVQVQDK	1.72
DERKIEHAQRILKHNDKHKLQNLFDKNARLEIGDTTFTGRERAQHWARRLYQQADHFEVKSVDNNPNDLTVELVVRVNGHDIHFQFRFRIKNGRITSFQVDYTDEDDERKMKDVDR	0.369
DERKKDRMRELFEAWKTGDEHTAEKMLDKDAKIDVGDHRVQGREQHSTDVRRRKEEIRLRVDIDSIHIHNGRVSVEYKEENNHNGKPDTKNARVDFNMHNGRVQEQKQSNES	-0.35

Sequence	protease stability score
DERKKVEDVARHWVEAFKEGDKDRLTSLMDENVTVKVGDKQVHGSEELLEDMTNKIKQHDHVDAKILSVTFHGDEAEVDVEVRLNHNGKNRHDRYVMVMRVHNGTLRLKKLTQK	1.24
DERKLATRHAHTLDRILRTGDEERYVDMADKDVKFDVGDRKYKGRHELHKLAKEEQKKADHLQLNYKHITAHNGRVDMDVVVVQVHNGQKRQTNVRYSEEIHNGNVIVQSATEK	-0.355
DERKQENVAKRVIRALQTGDSDMMERLVDPNAEVRYGDKRLRGREELREFVTTFKRAVDHLSFDRFEVHNGRAVANAKLNVNGRVMHVRIIVNFHDGRVTHIQIDVTDESQATRARS	0.643
DERKQHEVAEKVAKNFVDGNPSEFVKNMDPNAEVVIGDKTVTGREDIHRLVKDFHDKIDHIELKDLKVKNGRIEIIFQADNNGHKRQYRADVKANNGRMTTFEVREQ	0.927
DERKRAEKALNEWQRMWKYGNEEDFQKLADENVHFKYGDKTYRGREKMRKWVKEVLDSVDHVEVRIVSLHVRGDKITVRIRIYMEHNGRRTSFEYTMQLVDNNGHIVIVRFEQN	0.203
DERKRAKKALDDLKHAMHSNDPDKQKELMDENVELKYGDRHVNGREQANQHAEEHFERADHLDQKIQTWDIHNGKVSVTFTMTIEFNGRRENIQVQVTFDTVDGRLRIRTAREK	0.525
DERKRATEIAEQIQTILRTGNPKDMRRMADEDVKVDVGDQRIHGRDQLATTLHKLRKRADHIDIKIVSVNAQGDKFVVRQRVRETVNGRVRTFEFVMVLRVHNGREVVKSRHQS	0.225
DERKSAENFFHTLVKVMETGDEDKARKMFDENADAEVGDTEYHGREQLSKYMMTLVKNIDHIRLDLRDMHIEGDKIDIHADVEYRVNGQRTTNKLTVDVEIDNGRNKAQDIKFK	0.214
DERKVDVARNVAKAILTNDPDRAMSMVDKDVTVVIGDKEINGHEDFREHIEKQSKEAKLDMRSVDADNRGDKAVLTLDYQIDYNGKPMRDTQTIEVHVTNGRVKELRVRVDESLKRDLKS	-0.28
DERLADQVVELLHVMEDGDEKRVDQLIDKDVKFKVGDKDYHGDETARRRAKNLRDQMRIEYDLKDYRTNGDNAILNAEVRMNINGQPYSHHVKIVVRARNGKVKHLQMSFDEETQKKVDQ	0.909
DERLAKQVLTMMRNERTGNEHEVDKYVDPNARFQVGDQEIHGKEELRKEVSRRRNEMRIDFRVEDMKVHGDKVHLSFKNMKNHNGRPESFRATATVHVHNGTVKSVDIKTTK	-0.453
DERLEDKMRKFLEVLRTGDEKKLRDLADPNVRFDIGEKKYRGRDEAVREYKRMRDEIRFEIKIRSLEAQGNKVDVTFEMTYDHNGKPKHNVVKLVFEQHNGKLKQLKVKSDK	0.596
DERLHKQIERLFEQLNTGDEDKYVEYADPNARINVGDKNVHGRDQIRHMIRKENQEIRVEYEVKDIKASNGRARVDATVENEENGRPHTNRIDLVINVHNGRAKEIELRVPEDLLRTMKS	-0.131
DERLKEQVKRLWEALKENDHDELSKLVDKDAHIVVGDKEVHGRENFMTEMATELSEIRIDYKRLHIDAQGDTADVEVDVEQEHNGQPRRDVKRVEFEYENGRLVKMNVQDNG	0.438
DERLLHEFQKNVENNNWDKLSELVDEDAKIKYGDKTITGRESLDRMFTQLKRQVDHVDIESVHIDGDKVHVDLRIRVNGHSVRFIMTAEFSNGRIKSMKIEVTSEEQQDHLNEQLS	1.19
DERLREQLNRFHKLLEKNNPEKLVEQLDPNAEFEVGDKQYHGREQIEDWQRRLAKRQRFSRDFKSIDASNGNVRATFRVVITHDGKPDDYLAVMHFQVKNGKFKRFVIKRNQ	0.291
DERMDDTLRRLVERGDFHKIAENADPNVRMQVGNKVFHGREEVRRAAERWQNQVDHYQVDSVRVHNGHVSAHVQATVNGQRIRFTIKIDVQGDKVQRMEIEFTSEEQKKLQDEAVE	1.41
DERMKKLAEQIVKARRTGDEKQQKELFDEDAHVQIGDKTVHGKENQIETMKKRRDEIRVEIRINSLSVNNGKADISLEQTDDKNGTPKTDVVRATVHATNGRVKEVRYKHDG	-0.156
DERNERVFHHFVEAISFNDPQQARRNADKDVKFDVGEKVLHGREEWDKQMEHNKKHMRQDMRVKEVSTSGDKVTARVEQEHNHNGKPSTRDVKMSVEINNGKIKSFRLTTVS	-0.129
DERNIERARKWWEALQENNPDQARKLMDKDVTFTYGDKTYHGREDIAKDIHRRLENMRVEIKSMTLEDHNGRVDAQVDLVVDVNGQPRQVTLDAKVNVENGRVKEFNVQFDEQLRHDIQK	0.132
DERNKKVLRQFMHAQMRGNPEKAKKLADPNAKFQVGDKTVHGMDEWVRQLDRKKKQIRFEVRVDSVRVHGDNVTMHVEYRATYNGKPYSDKVDYSARLHNGKITKLSAEMDPEFQRELDT	0.296
DERNKRRFDEFERARKTGDPDRMKELADPNAKLDVGNKTITGMDEIVRQLKHEQDKIEIDIKFDRITVQGNNLRAEYHEEYNVNGKPFHDKVVLEVQFDNGKIRELKLRVDPEKQDERRT	-0.003
DERNLHVANEFWKVLTDGDPRRLMELVDPNAKIQYGDKTITGREEIRKKAEKDTKKSRFEVQVQDIRVTGDTANIHAVFNEDHNGQPSQDFYVVTMAMNGDKIRFMIQRKSK	0.483
DERNLRVVKHFWHAVRTGDPEEVKRQADKHVRVRIGDKHIEGRETLAHEVREEKNQLENDIQIRDIKVQGDRVHMRVVVVFNIDGRPQSVQITVEAKAHNGKLQSMSQEVPEEVLHEIEK	0.021
DERNNEFAKHFIEVLNQGDWKRLNEMLDPNVKVEIGDTTIHGRENFSRNVKQDLDHLRQEFHITSMDASGNKVEVRADVINRDNGKPREFKMKMEIRFHNGRVKEIKLDHDG	1.53
